Starred links: 1 amine or outer side, 2 acyl side, 3 side chain; linkers in the order of their positions; H or OH if unused. Positions of bridges follow the written chain, without caps; N, C: chain ends. Non-standard residues stand in square brackets, D forms with d. Primed or numbered codes have the meaning given here. No end group written: not given here. Pmc′ = pentamethylenecysteine (from Boc-D/L-Pmc), O=C(C(N[*:1])C1(S[*:3])CCCCC1)[*:2]; Cys(β,β-pentamethylene) = O=C([C@@H](N[*:1])C1(S[*:3])CCCCC1)[*:2]; Tyr(Me)″ = COc1ccc(C[C@H](N[*:1])C(=O)[*:2])cc1; 2Nal = N[C@@H](Cc1ccc2ccccc2c1)C(=O)O; Pen = CC(C)(S)[C@H](N)C(=O)O
T1: Vitronectin receptor (human), P06756
T1 chain 1: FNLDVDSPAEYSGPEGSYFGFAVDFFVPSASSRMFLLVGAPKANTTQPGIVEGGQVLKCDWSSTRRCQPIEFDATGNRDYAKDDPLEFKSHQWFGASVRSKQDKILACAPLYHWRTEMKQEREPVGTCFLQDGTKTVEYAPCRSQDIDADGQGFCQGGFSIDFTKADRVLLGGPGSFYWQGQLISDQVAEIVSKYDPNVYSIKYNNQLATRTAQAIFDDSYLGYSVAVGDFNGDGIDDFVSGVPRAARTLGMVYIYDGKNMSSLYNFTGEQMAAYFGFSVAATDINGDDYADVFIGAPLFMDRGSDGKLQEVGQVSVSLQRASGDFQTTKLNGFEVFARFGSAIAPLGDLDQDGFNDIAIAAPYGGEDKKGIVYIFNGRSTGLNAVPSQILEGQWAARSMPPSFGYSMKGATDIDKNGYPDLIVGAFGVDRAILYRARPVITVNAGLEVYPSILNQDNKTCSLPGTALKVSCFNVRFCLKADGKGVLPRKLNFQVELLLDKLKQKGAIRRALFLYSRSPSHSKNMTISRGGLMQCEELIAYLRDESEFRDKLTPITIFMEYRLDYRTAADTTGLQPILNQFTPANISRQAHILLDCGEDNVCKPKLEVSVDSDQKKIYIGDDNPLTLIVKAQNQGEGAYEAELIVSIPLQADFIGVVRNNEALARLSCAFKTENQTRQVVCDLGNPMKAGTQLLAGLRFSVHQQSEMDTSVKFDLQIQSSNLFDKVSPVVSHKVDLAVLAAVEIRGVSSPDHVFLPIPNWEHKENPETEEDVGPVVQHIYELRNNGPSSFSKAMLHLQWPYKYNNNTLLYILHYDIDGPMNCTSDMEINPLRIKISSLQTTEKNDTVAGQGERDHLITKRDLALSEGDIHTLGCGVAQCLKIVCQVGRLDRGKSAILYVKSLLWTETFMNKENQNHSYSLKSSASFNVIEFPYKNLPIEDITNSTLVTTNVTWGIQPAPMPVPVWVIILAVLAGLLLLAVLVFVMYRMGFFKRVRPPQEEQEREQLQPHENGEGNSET
T1 chain 2: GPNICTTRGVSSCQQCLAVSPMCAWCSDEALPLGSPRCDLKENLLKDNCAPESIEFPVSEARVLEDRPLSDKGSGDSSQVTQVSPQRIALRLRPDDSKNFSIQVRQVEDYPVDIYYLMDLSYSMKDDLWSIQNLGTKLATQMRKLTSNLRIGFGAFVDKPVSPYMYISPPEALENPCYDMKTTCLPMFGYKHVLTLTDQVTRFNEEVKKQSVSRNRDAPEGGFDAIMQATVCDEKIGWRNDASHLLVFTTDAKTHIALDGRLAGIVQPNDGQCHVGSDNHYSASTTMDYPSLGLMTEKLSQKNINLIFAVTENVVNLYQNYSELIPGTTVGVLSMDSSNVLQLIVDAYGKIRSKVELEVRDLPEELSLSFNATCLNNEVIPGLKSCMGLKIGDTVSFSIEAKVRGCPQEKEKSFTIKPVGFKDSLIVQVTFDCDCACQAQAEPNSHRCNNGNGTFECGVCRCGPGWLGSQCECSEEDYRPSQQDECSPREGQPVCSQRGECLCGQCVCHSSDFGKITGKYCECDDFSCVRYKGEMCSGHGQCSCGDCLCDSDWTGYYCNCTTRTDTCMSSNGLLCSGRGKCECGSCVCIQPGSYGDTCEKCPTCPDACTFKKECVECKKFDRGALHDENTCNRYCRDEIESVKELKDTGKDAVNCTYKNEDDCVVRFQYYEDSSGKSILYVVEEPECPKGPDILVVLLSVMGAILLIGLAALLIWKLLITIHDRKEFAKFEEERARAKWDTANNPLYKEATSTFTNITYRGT


Legend:
[1] = target: Platelet glycoprotein IIb/IIIa (human), P08514; experiment: ELISA; settings: modification not given
[2] = target: Fibronectin receptor (human), P08648; experiment: ELISA; settings: modification not given
Chain of Fibronectin receptor (human), P08648 (P08648 42-1049, chain 1 of 2): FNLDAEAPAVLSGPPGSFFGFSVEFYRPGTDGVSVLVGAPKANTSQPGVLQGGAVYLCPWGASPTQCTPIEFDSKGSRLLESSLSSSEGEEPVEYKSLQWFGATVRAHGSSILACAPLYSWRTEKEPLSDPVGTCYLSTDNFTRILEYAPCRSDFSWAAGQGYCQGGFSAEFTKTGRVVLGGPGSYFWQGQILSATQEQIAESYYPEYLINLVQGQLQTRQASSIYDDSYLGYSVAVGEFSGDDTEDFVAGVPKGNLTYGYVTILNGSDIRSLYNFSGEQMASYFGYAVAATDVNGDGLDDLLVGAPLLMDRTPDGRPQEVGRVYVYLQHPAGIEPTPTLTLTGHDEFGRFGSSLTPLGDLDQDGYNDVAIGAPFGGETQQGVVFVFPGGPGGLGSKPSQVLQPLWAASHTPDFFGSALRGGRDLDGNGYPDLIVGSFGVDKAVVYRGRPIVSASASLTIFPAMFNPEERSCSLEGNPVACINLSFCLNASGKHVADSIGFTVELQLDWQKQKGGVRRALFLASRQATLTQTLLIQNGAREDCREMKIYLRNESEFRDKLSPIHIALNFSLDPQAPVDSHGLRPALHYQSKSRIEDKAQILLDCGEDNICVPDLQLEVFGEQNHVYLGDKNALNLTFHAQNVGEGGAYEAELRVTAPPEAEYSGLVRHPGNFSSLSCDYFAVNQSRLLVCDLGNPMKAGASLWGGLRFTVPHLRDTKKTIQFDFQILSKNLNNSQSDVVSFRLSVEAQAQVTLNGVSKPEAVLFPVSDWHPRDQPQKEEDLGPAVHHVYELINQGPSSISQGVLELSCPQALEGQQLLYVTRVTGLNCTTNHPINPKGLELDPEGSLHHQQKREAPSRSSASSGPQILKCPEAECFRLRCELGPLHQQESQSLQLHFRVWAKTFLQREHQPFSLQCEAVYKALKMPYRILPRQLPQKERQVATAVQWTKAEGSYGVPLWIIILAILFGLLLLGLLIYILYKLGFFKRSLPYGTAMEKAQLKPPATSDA
Chain of Fibronectin receptor (human), P08648 (chain, as listed by the source, chain 2 of 2): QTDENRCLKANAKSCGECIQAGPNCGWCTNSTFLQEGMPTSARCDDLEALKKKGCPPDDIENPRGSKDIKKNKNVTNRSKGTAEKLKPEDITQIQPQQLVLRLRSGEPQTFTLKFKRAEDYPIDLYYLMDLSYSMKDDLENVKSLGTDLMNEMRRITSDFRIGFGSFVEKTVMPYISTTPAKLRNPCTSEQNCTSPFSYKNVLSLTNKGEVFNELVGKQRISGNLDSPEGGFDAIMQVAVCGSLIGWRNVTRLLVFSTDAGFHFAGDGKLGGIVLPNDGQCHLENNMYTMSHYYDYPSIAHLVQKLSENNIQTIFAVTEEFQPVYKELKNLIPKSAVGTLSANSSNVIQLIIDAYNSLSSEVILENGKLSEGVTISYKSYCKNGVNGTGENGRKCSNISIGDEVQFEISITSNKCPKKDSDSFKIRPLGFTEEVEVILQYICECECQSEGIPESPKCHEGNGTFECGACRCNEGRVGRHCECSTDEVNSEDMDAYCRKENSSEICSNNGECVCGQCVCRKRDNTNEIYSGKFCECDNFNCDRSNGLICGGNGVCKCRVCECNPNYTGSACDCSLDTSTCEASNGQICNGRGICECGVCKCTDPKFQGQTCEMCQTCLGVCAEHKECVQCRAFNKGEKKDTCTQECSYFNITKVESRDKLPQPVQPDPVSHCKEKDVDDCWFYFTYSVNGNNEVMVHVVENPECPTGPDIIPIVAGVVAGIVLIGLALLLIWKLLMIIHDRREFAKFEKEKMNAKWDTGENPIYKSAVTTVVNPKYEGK

[3] = target: Platelet glycoprotein IIb/IIIa (human), P08514; experiment: cell-based or functional assay
[4] = target: T1, Vitronectin receptor (human), P06756; experiment: competition, ELISA or liposome assay, vitronectin coated
[5] = target: Platelet glycoprotein IIb/IIIa (human), P08514; experiment: competition, ELISA or liposome assay

Binder	IC50 [1]	IC50 [2]	other results
R[Cys(β,β-pentamethylene)]GXRGD[Tyr(Me)″]RCR (disulfide 2-10; not fully specified (residue 4); printed as R(Pmc)G(DY)RGD(Y-OMe)RCR) [R(Pmc)G(DY)RGD(Y-OMe)RCR]		10 µM	
R[Cys(β,β-pentamethylene)]GHRGD[2Nal]RCR (disulfide 2-10) [R(Pmc)GHRGD(2-Nal)RCR]	0.07 µM		
G[Pen]IARGDWNCA (disulfide 2-10) [G(Pen)…]			IC50, ADP-Stimulated Aggregation [3]: 1.2 µM; IC50 [4]: 0.04 µM; IC50 [5]: 0.01 µM

Continued, in another order:

IC50 [1]	IC50 [2]	Binder	other results
0.07 µM		R[Pmc′]RHRGD[Y‑OMe]RCR (disulfide 2-10) [R(Pmc)RHRGD(Y-OMe)RCR]	
	> 10 µM	R[Pmc′]SHRGD[Y‑OMe]RCR (disulfide 2-10) [R(Pmc)SHRGD(Y-OMe)RCR]	
